Holding throughout (experiment): Continuous fluorescence-based PFTase enzyme assay, prenylation of N-dansyl-GCVIA (2)
Format in all cases: biochemical, Yeast

One series concerns the target T1, PFTase (Saccharomyces cerevisiae, UniProt P22007+P29703).
T1 sequence (P22007 1-431): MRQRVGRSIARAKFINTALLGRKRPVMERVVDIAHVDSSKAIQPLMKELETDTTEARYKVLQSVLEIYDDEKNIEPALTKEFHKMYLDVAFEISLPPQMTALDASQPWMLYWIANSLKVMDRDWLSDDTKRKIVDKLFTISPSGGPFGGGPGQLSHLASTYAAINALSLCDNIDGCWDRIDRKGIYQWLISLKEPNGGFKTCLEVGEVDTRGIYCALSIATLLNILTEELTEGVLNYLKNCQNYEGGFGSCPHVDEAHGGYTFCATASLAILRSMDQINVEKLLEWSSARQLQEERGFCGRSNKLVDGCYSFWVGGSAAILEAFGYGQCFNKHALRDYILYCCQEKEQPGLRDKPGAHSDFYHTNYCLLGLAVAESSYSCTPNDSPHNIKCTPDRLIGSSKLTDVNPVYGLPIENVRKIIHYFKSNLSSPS
T1 sequence (P29703 1-316): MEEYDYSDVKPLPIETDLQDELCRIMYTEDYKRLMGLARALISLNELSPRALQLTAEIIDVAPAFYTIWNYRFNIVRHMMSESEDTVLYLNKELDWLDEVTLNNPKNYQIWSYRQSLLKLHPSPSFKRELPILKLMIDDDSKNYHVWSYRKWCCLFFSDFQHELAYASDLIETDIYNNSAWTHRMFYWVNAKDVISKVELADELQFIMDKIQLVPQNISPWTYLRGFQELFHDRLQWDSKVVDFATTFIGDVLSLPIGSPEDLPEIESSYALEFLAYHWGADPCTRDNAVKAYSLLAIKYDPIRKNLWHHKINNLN
How it is done:
(§1) Next, a kinetic analysis of that reaction was performed using varying concentrations of 1 and N-dansyl-GCVIA (SEQ ID NO: 2) (2) in the presence of PFTase showing that the enzymatic process obeyed saturation kinetics. Steady-state kinetic parameters for the prenylation reaction using the bifunctional aldehyde-alkyne analogue are shown in FIG. 4. […] Nevertheless, despite this lower activity with 1, using elevated levels of PFTase (200 nM), it is relatively easy to drive these enzymatic reactions to completion in 2 hours.
Enzymatic reaction mixtures contained Tris.HCl (50 mM, pH 7.5), MgCl2 (10 mM), ZnCl2 (10 μM), DTT (5.0 mM), 2.4 μN-dansyl-GCVIA (SEQ ID NO: 2) (2), 0.040% (w/v) n-dodecyl-β-D-maltoside PFTase (80 nM), and varying concentrations of 1 (0-50 μM), in a final volume of 250 μL. The reaction mixtures were equilibrated at 30 ° C. for 1 min, initiated by the addition of PFTase, and monitored for an increase in fluorescence (λex=340 nm, λem=505 nm) for approximately 20 min. The initial rates of formation of products were obtained as slopes in IU/min using least squares analysis. Corrections were applied to all the rate calculations based on the difference between the fluorescence intensity of the prenylated product and the starting peptide. Assuming 100% conversion, the difference corresponds only to the fluorescence of the total amount of the product. […]

Substrate in series [1]: C#Cc1cc(C=O)cc(OC/C(C)=C/CC/C(C)=C/COP(=O)(O)OP(=O)(O)O)c1
The following applies: other: single peptide concentration 2.4 μM; pH 7.5; 30.0 °C. How it is done:
as §1
(§2) Enzymatic reaction mixtures contained Tris.HCl (50 mM, pH 7.5), MgCl2 (10 mM), ZnCl2 (10 μM), DTT (5.0 mM), 2.4 μN-dansyl-GCVIA (SEQ ID NO: 2) (2), 0.040% (w/v) n-dodecyl-β-D-maltoside PFTase (80 nM), and varying concentrations of 1 (0-50 μM), in a final volume of 250 μL. The reaction mixtures were equilibrated at 30 ° C. for 1 min, initiated by the addition of PFTase, and monitored for an increase in fluorescence (λex=340 nm, λem=505 nm) for approximately 20 min. The initial rates of formation of products were obtained as slopes in IU/min using least squares analysis. Corrections were applied to all the rate calculations based on the difference between the fluorescence intensity of the prenylated product and the starting peptide. Assuming 100% conversion, the difference corresponds only to the fluorescence of the total amount of the product. The slope was then divided by the fluorescence difference followed by multiplying by the total concentration of peptide (2.4 μM) which then gives the rate of formation of product in μM/s. It should be noted that the KM values reported here are actually apparent KM values, since the measurements were performed in only a single peptide concentration. The data were fit to a Michaelis-Menten model
(§3) [formula] using a nonlinear regression program, to determine kcat and KM (FIG. 4).

Substrate in series [2]: CC(C)=CCC/C(C)=C/CC/C(C)=C/CO[P@@](=O)(O)OP(=O)(O)O
The following applies: other: single peptide concentration 2.4 μM; pH 7.5; 30.0 °C. How it is done: as §1, §2, §3

A word on the Km: it is the concentration of substrate that gives half-maximal velocity. What is called kcat is the maximal rate divided by the concentration of active sites.

For `C#Cc1cc(C=O)cc(OC/C(C)=C/CC/C(C)=C/COP(=O)(O)OP(=O)(O)O)c1` [Compound 1, (2E,6E)-8-(3-ethynyl-5-formylphenoxy)-3,7-dimethylocta-2,6-dien-1-yl diphosphate], the “kcat lower than the kcat for FPP” value on PFTase (compared with FPP) was 42 fold. Moreover, the “substrate for the enzyme” value at PFTase (model peptide N-dansyl-GCVIA (2)) is reported as “alternative substrate”.

B1: PFTase (Saccharomyces cerevisiae S288C) (protein)
chain 1: MRQRVGRSIARAKFINTALLGRKRPVMERVVDIAHVDSSKAIQPLMKELETDTTEARYKVLQSVLEIYDDEKNIEPALTKEFHKMYLDVAFEISLPPQMTALDASQPWMLYWIANSLKVMDRDWLSDDTKRKIVDKLFTISPSGGPFGGGPGQLSHLASTYAAINALSLCDNIDGCWDRIDRKGIYQWLISLKEPNGGFKTCLEVGEVDTRGIYCALSIATLLNILTEELTEGVLNYLKNCQNYEGGFGSCPHVDEAHGGYTFCATASLAILRSMDQINVEKLLEWSSARQLQEERGFCGRSNKLVDGCYSFWVGGSAAILEAFGYGQCFNKHALRDYILYCCQEKEQPGLRDKPGAHSDFYHTNYCLLGLAVAESSYSCTPNDSPHNIKCTPDRLIGSSKLTDVNPVYGLPIENVRKIIHYFKSNLSSPS
chain 2: MEEYDYSDVKPLPIETDLQDELCRIMYTEDYKRLMGLARALISLNELSPRALQLTAEIIDVAPAFYTIWNYRFNIVRHMMSESEDTVLYLNKELDWLDEVTLNNPKNYQIWSYRQSLLKLHPSPSFKRELPILKLMIDDDSKNYHVWSYRKWCCLFFSDFQHELAYASDLIETDIYNNSAWTHRMFYWVNAKDVISKVELADELQFIMDKIQLVPQNISPWTYLRGFQELFHDRLQWDSKVVDFATTFIGDVLSLPIGSPEDLPEIESSYALEFLAYHWGADPCTRDNAVKAYSLLAIKYDPIRKNLWHHKINNLN
notes: made in house
With B1, the Km was determined as 2.52 µM in series [1] and 1.71 µM in series [2]. The kcat in series [1] was found to be 0.0123 s⁻¹.
